From the RNAGym collection of RNA variant scans (doi:10.1073/pnas.2313332121)
This sample holds only a part of the variants without activity.

B1: TPR 5TU (parent)
chain: GGAUCUUCUCGAUCUAACAAAAAAGACAAAUCUGCCACAAAGCUUGAGAGCAUCUUCGGAUGCAGAGGCGGCAGCCUUCGGUGGCGCGAUAGCGCCAACGUUCUCAACUAUGACACGCAAAACGCGUGCUCCGUUGAAUGGAGUUUAUCAUG

Variants of: B1
Experiment: polymerase ribozyme fitness, log enrichment relative to wild type (log ratio); higher = more active; in vitro selection for triplet polymerase activity
Summary of the method: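 After PCR construction and transcription, each subunit's mutant library from a heterodimeric triplet polymerase ribozyme was annealed with a biotinylated primer, the partner subunit and triplets. Incubation was frozen, at −7 °C, and extended constructs were gel-excised, bound to streptavidin beads and amplified by RT-PCR, in one selection round done in triplicate. Fitness is the logarithm of a genotype's enrichment divided by that of the wild type, from inverse-variance-weighted replicate averages of Illumina-sequenced inputs and outputs. The base of the logarithm is 2, and genotypes needed ≥10 input reads and ≥1 read per output.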

Variant | polymerase ribozyme fitness (log ratio)
U4A C43G | ≤ -4.2
U4A A12C U55A G84U | -2.4
U4A C8U C108G G140C | ≤ -4.2
U4G C93U | -0.624
U4C C10A A12U U53A G88C C96A | ≤ -4.2
U4G A24G U44A U56G G94A A138C | ≤ -4.2
U4C G48U A49C G68A C79G C105A | ≤ -4.2
U4C U53A U55A G81C A150U | -1.4
U4C A16C U55A G74U C85U C87U C103U U146A A147C | ≤ -4.2
U4G A40C A137G | -1.84
C5A A41G G58A A60C G84A A106U C131U U146A | -3.76
U4A C5G G58A A73U C75U C85A G100A C105G U145A | ≤ -4.2
U4C C103A U139C | -3.94
C5A A20C C35A G62A C76A C96G G140A G143C | ≤ -4.2
U4A G48A C85A C93A A147C | ≤ -4.2
C5A C14G G94C G143A | -4.07
U4A C51G G84A A106U C118A | ≤ -4.2
U4C U53A G92C C114A A120G | ≤ -4.2
U4C C8A A39G U55A G88U C93U U102G | ≤ -4.2
U4C A21U C57G A60G C85A A89C G94A | -2.06
U4A U9C C27G U55A G70C C85A U127G A142U | ≤ -4.2
U4G A12G A17G C93U G141C | -3.94
U4C C35U A47C U78G G136C | ≤ -4.2
U4G A39U A40U A91U C95G | ≤ -4.2

Variant | polymerase ribozyme fitness (log ratio)
U4C C96G | 0.0289
U4G G84A U109A A115C C123A | -2.01
U4G C54G A64U C95U U134G | ≤ -4.2
U4C U7G C27U U31A G68U G88U | ≤ -4.2
C5A A16U A52G A106G | -3.09
U4A A29U C38U U44A U55A C57U C87G C95G | ≤ -4.2
C5A A40G C87U | -2.81
U4C A17C G42A G50C U53A G62A U90G A120U | ≤ -4.2
C5A A16U U53A C57G U90G C95A | ≤ -4.2
U4G A20U C93G U109A A138G | ≤ -4.2
U4A C8A A20U A29C A40G G70C U101A A120U | ≤ -4.2
U4C A28G C38U C69U C87G G133A | ≤ -4.2
U4A C5G C8G U9G U53A C54A C72A C79A C85U A115C U139A G140C | ≤ -4.2
C5A A24G A64C G68A C76U C79U G83C U90A C95G A115U A138G | ≤ -4.2
C5A A26G A115G | ≤ -4.2
A3U U7A C8A C63U U90G | ≤ -4.2
U4A G50A U82G U134C | -2.39
U4A C57A C75G U134G | ≤ -4.2
U4G C8A U31A U55A C87U U101C G133C | ≤ -4.2
A3U U4G U55A A119C | -1.29
A3U G65A C85A | -3.12
U4A C85U | -1.53
A3U G59C C85U G126A | -0.686
U4A U53A U82A A91U A115G U148G | ≤ -4.2

Variant | polymerase ribozyme fitness (log ratio)
U4G A16G C54U G62C G71A U101G C105U A142G U144A | ≤ -4.2
U4C C85U U101G A147C | -0.704
U4C C51U C76U G94A | -1.51
A3U U56A | -1
U4G C10A C35U G83U G88C A120C G143A | -4.17
A3U U53A G84U A138G G152A | ≤ -4.2
U4C A19G C76G G86U A89G A106C U134G | ≤ -4.2
U4G A40G C72G C87U U104G C118U A122G | ≤ -4.2
U4G C79A C93A | ≤ -4.2
U4A G11C A20U A28U G143U U146G | ≤ -4.2
A3U U82C U101A | -0.128
U4G U31G G50C G68A C75A G86U C95U U101A | ≤ -4.2
U4G A20C C43U U55A G59U A60G C87A A121G G141C | ≤ -4.2
A3U U31G C36U C96A | -2.99
U4C A49C A52C C99A C132U G136U G140U | ≤ -4.2
U4A U15G C87U | 0.183
U4G A19U C43U C87U A98G | ≤ -4.2
U4G A21C C93G | -1.92
U4C C38U U55G C87A A106G | ≤ -4.2
A3U U13G A20U G74C | ≤ -4.2
C5A A37U | -0.964
A3U G80U | -0.722
U4G A28G A91G C93U A115U G133A | ≤ -4.2
U4G A16C A28U C38U U55A C75G U111C A122U A142C | ≤ -4.2

Variant | polymerase ribozyme fitness (log ratio)
U4C A17U G50U G58A G92C C99U G117U | ≤ -4.2
U4G A97U | 0.0622
U4A A60U G86A A107G A122C | ≤ -4.2
U4C G86U | -1.9
U4G U7G U13G C43A C54U U78G G94C | ≤ -4.2
C5A A12C G42A G68C C79A G83A C108G | ≤ -4.2
A3U G94A | -1.21
U4A C38A U53G C85U G94C A107G A137C G140A | ≤ -4.2
U4G G88U | -3.2
U4A C38U A40U G42U A73G U82C G94U A107G | ≤ -4.2
U4A G84A | -0.288
A3U U53A U82C C87G C96U C125G | ≤ -4.2
U4C A16C A19U G86U C96A C108A | ≤ -4.2
U4A A17C G94A C149U | -1.61
U4G A24U G62U C87U A89U | -3.44
U4A C5U C32A C54U G58A A73G G84A A91G A121U C125U U145C U146C | ≤ -4.2
U4G A20C C85U | -0.147
U4G A21G A52G G141A | -2.63
U4C U15G U77A G92U C99G | ≤ -4.2
A3U U145C | -0.205
U4A C18U G67A C93G G124A | ≤ -4.2
U4G A49U C57U U82G A91U | ≤ -4.2
U4G G25A U45G C87A C99A C103U C105G U139G G143A | -4.11
U4G U33C G84U A120U U130C C132U | ≤ -4.2

Variant | polymerase ribozyme fitness (log ratio)
U4A C35G G46A C75G G94C C105G | ≤ -4.2
U4A A19C A41U U56C G124A G143A | -3.84
U4C C18G A52G C54U G70A A91C C93A G128U G133C U151C | ≤ -4.2
U4C C14A C93G | ≤ -4.2
U4A C10U A17G A21C C43U G92A C105A G124C | ≤ -4.2
A3U U4A C5U C14G A16U A30C G83U G100A | ≤ -4.2
A3U G83C | -0.632
A3U G83A | -1.47
U4C C5U A12C G25C A40U G58C G133U | ≤ -4.2
U4G C8U U56A G84A | -1.05
U4G U53A C85U G133C | -2.45
U4C C18U G48U A49C G68U G74A C76A G88U C116G | ≤ -4.2
U4C A12C A24U C27G A28G U44A G88A C116U G143A | ≤ -4.2
U4A G59A | -1.06
A3U G59U U82A C93A A142C | ≤ -4.2
U4C G11U G42C G48A U53G C57G G81U C85U | ≤ -4.2
U4A G83U C95G G124U U148C | ≤ -4.2
U4C G94C C116G | -0.818
U4C C10U U56G A60U G92U | -3.76
C5A A19U G86C | -3.47
U4C C57A C87A U146A A150C | ≤ -4.2
A3U G11A C14G U53C C76G G117U | ≤ -4.2
U4A C14G A40G | -3.69
U4G A40C A49G C96A | -3.02

Variant | polymerase ribozyme fitness (log ratio)
U4G C76U G84A C95U U111G | ≤ -4.2
U4G A23G C32U G62C G94C G126A G143U | -4.05
A3U G46A A113U | -3.1
U4A A26G A49C A107G | ≤ -4.2
U4A U6A C36U C57G G68U C79G A91C | ≤ -4.2
U4G U55G | -0.607
U4G C114U | -2.01
U4A U15G A91C C114U C125A | ≤ -4.2
A3U U31G A40U U53A C85U C95U | -3.06
C5A A41C C54U C85A C103A G117A G133C A137U | ≤ -4.2
A3U G58C | -0.0781
A3U U7A A37U G67U A91C G143A | ≤ -4.2
U4A G34U U61G G70A C99U A107C U139G | ≤ -4.2
U4C G50A G83A C87A A91C G92A U146A | ≤ -4.2
U4G A41C G48C A60U A97G A107U | ≤ -4.2
U4A A21C G80A | -0.338
U4C U55A | -0.767
U4C U144G | 0.832
U4G C54G C95G | -3.63
U4C A26U C69U | -2.9
C5A A47G C79A G83U G140A U146G | ≤ -4.2
A3U U6A A39G C96G G124U G141A | -3.93
U4C C27U G62C C85A A138U | ≤ -4.2
U4G U9C A23U C43A U56G C87U U111G C132U | ≤ -4.2

Variant | polymerase ribozyme fitness (log ratio)
U4G A23U A26U C27G C63U U90G C93A C108U C114U C129G G140C | ≤ -4.2
U4A C54U U56A C79G C85U C103G C116U G143C | ≤ -4.2
U4A A41C G126C | -1.9
U4G A19C C36A A119C G133A | ≤ -4.2
U4A U33A G48C C57U C85U A115G C129G G141U | ≤ -4.2
C5A A12U | 0.264
U4G C69G C96U A142C | -3.64
C5A A21U G50A C85A C96A C118G G133C C149U | ≤ -4.2
U4C A22U A73U C96G A120G | -2.21
U4G A21U C32G C38G C93G U146A | ≤ -4.2
C5A A20C | 0.413
U4A A21U C38U C85A C87G C103A | ≤ -4.2
U4A A17C G59C A119G | -0.404
C5A A17U U45A G71C G84A A89U U104G U145G | ≤ -4.2
C5A A17U G42A G83C U102A A119U G126U G141U | ≤ -4.2
U4G U56G C85A G141C | -2.61
U4G A29C C75A C96U A115U U148A | -3.99
U4A G48C C75A C99A U135C A150C | ≤ -4.2
U4A C132G U139G | -3.71
U4A A20G C35A U55G C72U C99U A120U U146A | ≤ -4.2
C5A A47U G84A G124U | -1.14
A3U G25C C38U C85A C116A C123U | -2.27
U4A C38U C57A A66G C96G C105A C123G G124A C129G | ≤ -4.2
